# Measured values published in publication PMC4374921, “Inhibition of Type VI Secretion by an Anti-TssM Llama Nanobody” (PLoS ONE, 2015).
# T1: periplasmic domain of the EAEC TssM protein (enteroaggregative Escherichia coli …)
# T1 construct: TssM of enteroaggregative Escherichia coli (EAEC), a 1129-amino-acid inner membrane protein; periplasmic domain, amino-acids 386-1129; also called TssM periplasmic domain; source: recombinant, produced and purified as described previously [11]
# T1 chain: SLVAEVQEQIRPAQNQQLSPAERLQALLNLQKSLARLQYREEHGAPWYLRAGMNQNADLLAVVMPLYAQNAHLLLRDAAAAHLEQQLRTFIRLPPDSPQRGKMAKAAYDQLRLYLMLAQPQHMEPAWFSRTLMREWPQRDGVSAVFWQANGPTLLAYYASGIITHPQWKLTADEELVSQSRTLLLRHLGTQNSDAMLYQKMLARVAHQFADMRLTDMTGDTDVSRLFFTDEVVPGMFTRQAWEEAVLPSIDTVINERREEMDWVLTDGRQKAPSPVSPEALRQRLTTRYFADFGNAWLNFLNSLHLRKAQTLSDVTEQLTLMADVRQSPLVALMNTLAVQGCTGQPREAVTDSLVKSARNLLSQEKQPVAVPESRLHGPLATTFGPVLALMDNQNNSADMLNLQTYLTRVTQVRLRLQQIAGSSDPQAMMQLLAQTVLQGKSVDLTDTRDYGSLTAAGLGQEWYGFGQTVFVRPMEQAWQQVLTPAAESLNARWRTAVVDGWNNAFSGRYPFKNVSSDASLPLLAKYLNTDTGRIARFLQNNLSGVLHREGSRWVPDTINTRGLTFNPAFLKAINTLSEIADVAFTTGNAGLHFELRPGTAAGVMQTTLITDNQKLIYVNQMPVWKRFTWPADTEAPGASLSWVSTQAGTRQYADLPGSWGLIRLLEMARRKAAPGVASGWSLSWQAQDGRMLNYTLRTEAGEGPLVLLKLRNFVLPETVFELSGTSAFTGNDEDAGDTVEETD
# B1: anti-TssM nanobody nb42 (VHH)
# VHH: DVQLVESGGGLVQAGGSLRLSCAASGFTFGDYAIGWFRQAPGKEREGVSCFSNSDGSTYYADSVKGRFTSSSDNAKNTQYLQMNSLKPEDTAIYYCAAVKAQGIYCTEYIIGPYGMDYWGKGTLVTVSS
# notes: very similar to nb25, CDR3 identical to that of nb25; No structure was solved for nb42; also called nb25 variant nb42; source: E. coli WK6 periplasm (pHEN6, pelB signal peptide), purified (Ni-NTA, Superdex 75)
# B2: anti-TssM nanobody nb02 (VHH)
# VHH: DVQLVESGGGLVHPGGSLRLSCAASGRTFSDYALGWFRQAPGKDREFVAAISWSGGSTYYADSVQGRFTISRDNDKNSVYLQMNSLKPEDTAVYYCAADKYYTGPGGESVYDYWGRGTQVTVSS
# notes: llama VHH raised against TssMp; CDR3 of 14 residues; source: E. coli WK6 periplasm (pHEN6, pelB signal peptide), purified (Ni-NTA, Superdex 75)
# B3: anti-TssM nanobody nb25 (VHH)
# VHH: QVQLVESGGGLVQAGGSLRLSCAASGFTFEDYAIGWFRQAPGKEREGVSCISNLDGSTYYPDSVKGRFTASSDKAKNMVYLQMNSLKPEDTAVYYCAAVNAQGIYCTDYIIGPYGMDYWGKGTQVTVSS
# notes: llama VHH raised against TssMp; CDR3 of 19 residues, disulfide bridge between Cys-106 and CDR2 Cys-50; source: E. coli WK6 periplasm (pHEN6, pelB signal peptide), purified (Ni-NTA, Superdex 75)
# Target: T1, periplasmic domain of the EAEC TssM …
# Assay: SPR; nanobodies covalently linked to a CM5 chip, TssMp injected (1.95 to 250 nM); Biacore X100; multi-cycle kinetics; regeneration with glycine-HCl pH 2.5; apparent KDs
# Conditions: both partners purified
Binder,Kd [nM],koff [s⁻¹],kon [M⁻¹ s⁻¹]
B1,1.76 ± 0.08,0.00036,204000
B2,66.8 ± 2.5,0.0402,602000
B3,1.61 ± 0.05,0.00056,350000
